Target: the molecule itself
Assay: negative-stain electron microscopy; purified SynPOR with PG lipids and either Chlide + NADPH or Pchlide + NADP+; search for large oligomers; 37 mM sodium phosphate pH 7.1, 225 mM NaCl, 150 mM imidazole, 5 mM beta-mercaptoethanol, 25% glycerol

B1: light-dependent protochlorophyllide oxidoreductase from Synechocystis (SynPOR) (enzyme, UniProt Q59987 1-322, looked up)
chain: MEQPMKPTVIITGASSGVGLYGAKALIDKGWHVIMACRNLDKTQKVADELGFPKDSYTIIKLDLGYLDSVRRFVAQFRELGRPLKALVCNAAVYFPLLDEPLWSADDYELSVATNHLGHFLLCNLLLEDLKACPDADKRLIILGTVTANSKELGGKIPIPAPPDLGNFEGFEAGFKKPIAMINNKKFKSGKAYKDSKLCNMLTTRELHRRFHQETGIVFNSLYPGCVADTPLFRNHYSLFRTIFPWFQKNVTKGYVSQELAGERVAMVVADDKFKDSGVHWSWGNRQQAGREAFVQELSEQGSDAQKAQRMWDLSEKLVGLV
notes: light-dependent protochlorophyllide oxidoreductase (SynPOR), Synechocystis, Uniprot Q59987; The reaction buffer holds 150 mM imidazole, so a His tag is likely (surmise); In the assay it stood with PG liposomes, pigment (Pchlide or Chlide) and NADP+ or NADPH; also called cyanobacterial LPOR; LPOR
  binding result: binds
